This note sets out measurements from patent publication US20210085770A1 (KORANEX CAPITAL, published 2021).

This assay concerns the target T1, recombinant SARS-CoV-2 S1 protein expressed from insect (Sf9) cells (S1-His, SinoBiological, Cat. No. … (SARS-CoV-2, UniProt P0DTC2 16-685, glycosylated by insect cells)).
T1 construct: also called 51-His (as misprinted)
As to the kind of experiment: ELISA, coated insect-cell S1-His, HRP-conjugated lectin 10 ug/mL.

B1: Vicia villosa lectin (VVA) (other)
chain: SESTSFSFTNFNPNQENLILQEDALVNSKGTLELTKNGKPVPESLGRNCTTLASFTTSFSFVMSAPNSLDVADGLAFFLAPPDTQPQKRGGFLGLFKDRKHDISYQSVAVEFDTYSNVWDPNTTHIGIDTNTIESKKITPFDMVYGEKILFASLVFPVSQDILPEYVRVGFSATTGLNEGVVETH
With B1, the “mean fold increase of OD450” value amounted to 22.5 fold.

B2: Maackia amurensis lectin (MAA) (other)
chain: SDELSFTINNFVPNEADLLFQGEASVSSTGVLQLTRVENGQPQKYSVGRALYAAPVRIWDNTTGSVASFSTSFTFVVKAPNPDITSDGLAFYLAPPDSQIPSGSVSKYLGLFNNSNSDSSNQIVAVELDTYFAHSYDPWDPNYRHIGIDVNGIESIKTVQWDWINGGVAFATITYLAPNKTLIASLVYPSNQTTFSVAASVDLKEILPEWVRVGFSAATGYPTEVETHDVLSWSFTSTLEANCDAATEN
For the molecule B2, the “mean fold increase of OD450” value was found to be 4.3 fold.
